Several values for one entry are separate records, joined by “and”; a condition that tells them apart may be missing. Equal values may be shown once.
Experiments:
[1] = with ultrasound; cited from earlier work
[2] = assay type: in vitro ADME, New Zealand White Rabbit
Protocol: The eyes of New Zealand White Rabbits (6-month to one-year-old) were enucleated immediately after the rabbits were sacrificed. The eyes were kept on ice prior to experiments and the time lag never exceeded 15 minutes to ensure tissue freshness. All the periocular tissues (muscles and conjunctiva) were removed and the optic nerve was sealed with Vaseline®. The eye was immersed in a container filled with 4 ml of 0.1% FITC-BSA or BBS+®. An ultrasound transducer with a probe size of 1 cm^2 (BTL-4000, BTL Industries, Inc., Clark, N.J.) was positioned a few millimeters above the sclera near the equator. The zone of ultrasound application was labeled with a marker. Ultrasound at a therapeutic frequency (1 MHz) and a low power input (0.5 W/cm^2) was applied for 30 seconds. The eye continued to be immersed in 0.1% FITC-BSA or BBS+® for different time intervals (5, 15, 30 and 60 minutes for 0.1% FITC-BSA; 15 minutes for BSS+®). All of the experiments were carried out at room temperature. The scleral surface temperature at the ultrasound application zone before and after treatment was measured using a thermocouple. Controls were performed by immersing the eyes for different time intervals without ultrasound application.
Immediately after the ex vivo experiments, the whole eye was washed and immersed in a mould filled with optimum cutting temperature medium (O.C.T) (Leica, Wetzlar, Germany), followed by quick-freezing in liquid nitrogen. 10 μm thick sections across the marked ultrasound application zone of the eye were cut using a cryostat (CM1850, Leica, Wetzlar, Germany). Polylysine-coated slides were used for collecting the tissue sections.
All images were acquired using a fluorescence microscope (BX 41, Olympus, Center Valley, Pa.). The image of the sclera was captured under optical mode, and FITC-BSA penetration into the sclera was captured under fluorescence mode (bandpass filter: 510-550 nm, dichroic mirror: 570 nm, barrier filter: 590 nm, exposure time: […]). The pictures shown in the FIGS. 15-17 were merged images of these two modes. The thickness of the sclera and the penetration distance of FITC-BSA were obtained using the software SPOT® (Diagnostic Instruments, Inc., MI, USA). For each experiment or control, 2 to 4 eyes from different rabbits were used. Three tissue sections were obtained from each eye and at least 20 measurements on the penetration distance were made in each eye. Only images showing intact sclera were used for measurement to avoid ambiguity.
In the first set of experiments, the parameters of the ultrasound used were set as follows: frequency: 1 MHz, power: 0.5 W/cm^2, application duration: 30 seconds, size of transducer: 1 cm^2. Freshly enucleated New Zealand White Rabbit eyes were used as an ex vivo eye model, and 65 kDa protein fluorescent albumin was used as the model macromolecule. Whole rabbit eyes were immersed in fluorescent albumin solution. Ultrasound was applied for 30 s and then the eyes were kept in fluorescent albumin for 5, 15 or 30 minutes. For the control experiment, the eyes were immersed in fluorescent albumin for 15 minutes without ultrasound application. The eyes were then flash frozen in OCT (Optimum Cutting Temperature) medium with liquid nitrogen and sectioned in cryostat for further investigation.
Briefly, the parameters of the ultrasound were set as follows: frequency: 1 MHz, power: 0.5 W/cm^2, application duration: 30 seconds, size of transducer: 1 cm^2. […]

[3] = Calculation of intrascleral diffusivity from penetration distance versus square root of time; assay type: in vitro ADME, New Zealand White Rabbit; conditions: for intrascleral diffusivity: 37° C.
Protocol: The one-dimensional diffusion model describing the penetration distance (L), diffusivity (D) and time of diffusion (t) is given by the equation below (23): L=√{square root over (2Dt)}. (1)
A plot of the penetration distance versus the square root of time yields a straight line. The diffusivity is calculated from the slope, which equals […].
The diffusivity measured at room temperature is converted to the value at 37° C. according to Stokes-Einstein equation, which gives
[formula] where D and η are diffusivity and viscosity respectively, with the temperature designated at the subscript. Since the experiment was conducted in dilute buffer solution, the viscosity of water is used. Histological Study

Molecule	enhancement of delivery through the cornea versus passive diffusion [1]	depth of intrascleral site reached [2]	increase in percentage of depth of protein penetration versus control [2]	level of penetration (qualitative) [2]	penetration depth [2]	penetration versus sample without 15-minute BSS+ pretreatment [2]	increase in ocular diffusivity ([3]; 0.5 W/cm^2, 1 MHz ultrasound for 30 seconds)	intrascleral diffusivity ([3]; control without ultrasound)	intrascleral diffusivity ([3]; with ultrasound, first 15 min)	intrascleral diffusivity ([3]; with ultrasound, from 15 to 60 min)	increase in diffusivity by ultrasound treatment ([3]; first 15 minutes, ultrasound versus no ultrasound)
O=C([O-])c1ccccc1-c1c2ccc(=O)cc-2oc2cc([O-])ccc12.[Na+].[Na+] [sodium fluorescein]	ten times	–	–	–	–	–	–	–	–	–	–
FITC-BSA: 65 kDa protein fluorescent albumin used as the model macromolecule	–	about 110 μm	4 folds	failed to penetrate into the sclera	15.8±5.7 μm	much lower	2 folds	3.90×10^−08 cm^2/sec	6.17×10^−8 cm^2/sec and 6.17×10^−08 cm^2/sec	4.18×10^−8 cm^2/sec	1.6 times

Source: patent US9314421B2, “Ultrasound-enhanced intrascleral delivery of macromolecules” (The Hong Kong University of Science and Technology, priority 2009, dated 2016)
